These results are taken from patent US11433139B2, “Peptide vaccines against interleukin-31” (Zoetis Services LLC, priority 2018, dated 2022).

Where no end group is shown, it is not given here.

Test [1] deals with full length feline IL-31. Kind of test: Cat serology study, serum titers by indirect ELISA to feline IL-31. The settings on record: laboratory cats, 10 μg/dose s.c. days 0, 28, 56, Bay R1005 and CpG adjuvant mixture. It counts as in vivo. As to the method:
2.9. Serum titers to IL-31 following immunization of laboratory cats with IL-31 feline and equine mimotopes and full length feline IL-31 protein A serology study was performed using laboratory cats like the study design described herein in section 2.3 however in this study feline and equine mimotopes were compared. Laboratory cats were subcutaneously administered the conjugated IL-31 mimotopes adjuvanted with a mixture including the glycolipid adjuvant Bay R1005 (N-(2-Deoxy-2-L-leucylamino-β-D-glucopyranosyl)-N-octadecyldodecanoylamidehydroacetate) as well as CpG oligonucleotides. A control group was included containing CRM-197 conjugated feline IL-31 (SEQ ID NO: 157; Feline_IL31_wildtype), the corresponding nucleotide sequence for which is (SEQ ID NO: 158; Feline_IL-31_wildtype) in an adjuvant mixture including the glycolipid adjuvant Bay R1005 (N-(2-Deoxy-2-L-leucylamino-β-D-glucopyranosyl)-N-octadecyldodecanoylamidehydroacetate) as well as CpG oligonucleotides. (T01). 10 μg/dose of each adjuvanted mimotope or control was administered subcutaneously on days 0, 28, and 56 (0.5 ml of a 20 μg/ml solution). Blood for serum was taken on day −14, 0 (pre-dose), 28 (pre-dose), 42, 56 (pre-dose), 70, and 84. In addition, on days 35 and 63, approximately 40 mls of blood was collected from each animal into lithium heparin tubes and processed for PBMC isolation using a standard method. […]

The subject of test [2] is mAb ZTS-361. Nature of the test: Peptide block of mAb ZTS-361 inhibition of IL-31 mediated STAT3 phosphorylation in feline FCWF-4 macrophages. It counts as cell-based.
For test [3], the system named is full length equine IL-31. Nature of the test: Dog immunogenicity study, serum titers by indirect ELISA to equine IL-31. It counts as in vivo. The settings on record: beagle dogs, 10 μg/dose s.c. days 0, 28, 56, ZA-01 adjuvant. An excerpt: (§1) An immunogenicity study was undertaken to assess the ability of CRM-197-conjugated IL-31 15H05 mimotopes to generate an epitope-specific immune response driven towards the relevant region on the IL-31 protein where antibody 15H05 binds and neutralizes the cytokines ability to activate the IL-31Ra:OSMR co-receptor. The study design is depicted in FIG. 14. Purebred male beagle dogs were subcutaneously administered the conjugated IL-31_15H05 mimotopes adjuvanted with ZA-01. […] Control groups were included containing ZA-01 adjuvant CRM-197 alone (T01) and CRM-197 conjugated feline IL-31 (SEQ ID NO: 159; Feline_IL-31_E_coli), the corresponding nucleotide sequence for which is (SEQ ID NO: 160; Feline_IL-31_E_coli) in ZA-01 (T02). 10 μg/dose of each adjuvanted mimotope or control was administered subcutaneously on days 0, 28, and 56 (0.5 ml of a 20 μg/ml solution). Blood for serum was taken on day 0 (pre-dose), 7, 12, 28 (pre-dose) 35, 42, 49, 56 (pre-dose), 63, 70, 77, and 84. In addition, on days 35 and 84, approximately 40 mls of blood was collected from each animal into lithium heparin tubes and processed for PBMC isolation using a standard method. […]
(§2) Serum titers from each study day indicated in section 2.3 above were assessed for each animal. Titers were determined using an indirect ELISA where a full length IL-31 protein was used as the capture material for each respective assay. […]
A general note: ELISA stands for enzyme-linked immunosorbent assay.

Test [4] deals with full length human IL-31. Kind of test: Dog immunogenicity study, serum titers by indirect ELISA to human IL-31. The settings on record: beagle dogs, 10 μg/dose s.c. days 0, 28, 56, ZA-01 adjuvant. It counts as in vivo, canine.
Excerpt: as §1, §2

For test [5], the system named is full length feline IL-31 protein. Nature of the test: Dog immunogenicity study, serum titers by indirect ELISA to feline IL-31. The settings on record: beagle dogs, 10 μg/dose s.c. days 0, 28, 56, ZA-01 adjuvant; maximum dilution 1:50,000. It counts as in vivo, canine.
Excerpt: as §1, §2

Test [6] concerns full length canine IL-31. Nature of the test: Dog immunogenicity study, serum titers by indirect ELISA to canine IL-31. It counts as in vivo. The settings on record: beagle dogs, 10 μg/dose s.c. days 0, 28, 56, ZA-01 adjuvant; maximum dilution 1:50,000.
Excerpt: as §1, §2

mAb ZTS-361, sequence (as listed by the source): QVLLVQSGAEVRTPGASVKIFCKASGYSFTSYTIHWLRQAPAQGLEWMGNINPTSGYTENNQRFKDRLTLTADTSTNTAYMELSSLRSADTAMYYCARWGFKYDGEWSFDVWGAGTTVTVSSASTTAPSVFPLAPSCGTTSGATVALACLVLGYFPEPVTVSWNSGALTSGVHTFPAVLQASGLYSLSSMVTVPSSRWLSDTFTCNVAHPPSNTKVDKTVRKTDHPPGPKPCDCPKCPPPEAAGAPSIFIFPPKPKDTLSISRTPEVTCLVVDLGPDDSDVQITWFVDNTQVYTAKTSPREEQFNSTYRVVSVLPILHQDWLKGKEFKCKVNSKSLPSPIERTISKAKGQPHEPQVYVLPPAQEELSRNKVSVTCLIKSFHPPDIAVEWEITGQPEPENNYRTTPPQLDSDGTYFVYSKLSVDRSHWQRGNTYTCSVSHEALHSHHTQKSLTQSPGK
mAb ZTS-361, sequence (as listed by the source): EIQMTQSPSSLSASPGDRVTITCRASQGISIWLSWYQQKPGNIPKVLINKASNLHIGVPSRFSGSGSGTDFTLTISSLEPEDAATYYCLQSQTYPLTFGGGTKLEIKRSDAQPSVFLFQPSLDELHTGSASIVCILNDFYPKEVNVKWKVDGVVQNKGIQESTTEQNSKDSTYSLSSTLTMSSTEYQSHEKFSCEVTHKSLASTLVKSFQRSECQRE
full length equine IL-31, sequence (as listed by the source): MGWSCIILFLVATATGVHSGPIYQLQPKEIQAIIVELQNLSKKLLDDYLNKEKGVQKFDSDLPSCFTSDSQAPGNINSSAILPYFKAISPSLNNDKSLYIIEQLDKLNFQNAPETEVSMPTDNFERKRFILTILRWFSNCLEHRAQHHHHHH
full length canine IL-31, sequence (as listed by the source): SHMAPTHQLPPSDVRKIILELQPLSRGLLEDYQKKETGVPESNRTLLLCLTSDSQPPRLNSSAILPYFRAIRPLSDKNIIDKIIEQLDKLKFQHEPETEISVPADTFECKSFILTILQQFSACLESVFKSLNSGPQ

“constrained feline IL-31 15H05 mimotope, N-AKVSMPADNFERKNFILT-C plus N and C terminal Cysteines, mT2a (CAKVSMPADNFERKNFILTC; also: constrained via terminal cysteines, mode not given here) [ZTS-563]”: in test [1], the “feline antibody titers to full length feline IL-31” value was “modest response”. For the same molecule, in test [2] (CRM197 conjugated, co-incubated 1 hour with 0.2 μM mAb ZTS-361, FCWF-4 cells), the “IC50, conjugated peptide” value stood at 3.384 µg/mL. The “decline of potency following conjugation” value in test [2] (conjugated vs unconjugated) was “approximately 3 fold”.

B1: feline IL-31 CRM: CRM-197 conjugated feline IL-31 (SEQ ID NO: 159; Feline_IL-31_E_coli), control group T02 (conjugate)
chain: MRGSHHHHHHGSSHMAPAHRLQPSDIRKIILELRPMSKGLLQDYLKKEIGLPESNHSSLPCLSSDSQLPHINGSAILPYFRAIRPLSDKNTIDKIIEQLDKLKFQREPEAKVSMPADNFERKNFILAVLQQFSACLEHVLQSLNSGPQ
modifications: conjugated to CRM-197 carrier; Amino acid sequence representing feline IL-31 protein with N-terminal His tag
With B1, the “canine antibody titers (CRAR) to full length equine IL-31” value in test [3] was “negligible”. For the same molecule, in test [4], the “canine antibody titers (CRAR) to full length human IL-31” value is on record as “minor”. Besides, in test [5], the “canine antibody titers to full length feline IL-31” value was “moderate and sustained antibody response”. In test [6], the “canine antibody titers to full length canine IL-31” value is reported as “transient CRAR”.
